Source: article PMC5724754 (Cell reports, 2015)

Molecular target: CSN3 (human (endogenous in HEK293, HEK293T …, UniProt Q9UNS2 1-423))
Test: co-IP

Sequence of CSN3 (human (Q9UNS2 whole entry): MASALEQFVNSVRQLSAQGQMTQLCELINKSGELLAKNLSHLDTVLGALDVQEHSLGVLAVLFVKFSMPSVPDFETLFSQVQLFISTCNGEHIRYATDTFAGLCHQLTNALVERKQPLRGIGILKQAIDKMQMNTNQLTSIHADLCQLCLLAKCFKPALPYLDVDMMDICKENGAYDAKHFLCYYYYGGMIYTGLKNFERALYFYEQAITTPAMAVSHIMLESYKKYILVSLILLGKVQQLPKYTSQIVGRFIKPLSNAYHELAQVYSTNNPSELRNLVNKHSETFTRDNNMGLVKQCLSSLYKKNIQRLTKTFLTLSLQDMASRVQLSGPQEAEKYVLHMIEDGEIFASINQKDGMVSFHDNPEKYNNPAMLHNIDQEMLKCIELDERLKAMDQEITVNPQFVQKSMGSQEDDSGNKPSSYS

B1: CSNAP (CSN Acidic Protein) (natural protein)
chain: MKPAVDEMFPEGAGPYVDLDEAGGSTGLLMDLAANEKAVHADFFNDFEDLFDDDDIQ
  binding result: binds
